We go through two compounds from patent US20250288684A1, “ACETAL-TYPE RELEASABLE POLYOXYETHYLENE DERIVATIVE, PRODUCTION METHOD THEREOF AND ACETAL-TYPE RELEASABLE POLYOXYETHYLENE CONJUGATE” (NOF CORPORATION, priority 2022, published 2025).

The nature of data set [1]: Degradability test: decomposition in deuterium oxide buffer solution, NMR measurement. Format: physicochemical. As to conditions: pH 7.4; sodium phosphate deuterium oxide buffer solution, pD 7.4, 40° C.; β-alanine adduct amount by NMR; read-out: half-life (t½) (converted). As for the experimental part: Each of the compounds of Formulas (50), (51), (52) and (53) (20 mg) was dissolved in sodium phosphate deuterium oxide buffer solution (0.7 mL) having a pD of 7.4, and then placed in a thermostatic bath at 40° C., and NMR measurement was performed at a random timing. […] A half-life (t½) was calculated from a formula (in which ln represents a logarithm with the Napier's number as a base, and λ represents a product of an exponent of the Napier's number in an approximation formula of the graph and −1) based on the approximation formula.
Each of the compounds of Formulas (75), (76), (77) and (78) (20 mg) was dissolved in sodium phosphate deuterium oxide buffer solution (0.7 mL) having a pD of 7.4, and then placed in a thermostatic bath at 40° C., and NMR measurement was performed at a random timing.

Data set [2] is described as follows: Evaluation of stability of PEGylated insulin in buffer solutions with various pH values (HPLC). In kind it is physicochemical. As to conditions: pH 6.0, 7.0, 8.0 and 9.0 buffer solutions, 25° C. As for the experimental part:
With 100 μL of 100 mM phosphate buffer solution (pH 6.0), 100 μL of 100 mM phosphate buffer solution (pH 7.0), 100 μL of 100 mM ammonium formate buffer solution (pH 8.0), or 100 μL of 100 mM ammonium formate buffer solution (pH 9.0), 100 μL of 0.5 mg/mL PEG(20k)-OCO-NH-insulin prepared in Comparative Example 4 or 100 μL of 0.5 mg/mL 2MPEG(20k)-OCO-NH-insulin prepared in Example 26 was mixed, and then allowed to stand at 25° C. and subjected to HPLC analysis at a random timing.

Regarding `COCCOc1cccc(C2OCc3cc(COC(=O)NCCC(=O)O)ccc3O2)c1` (centres unmarked) [Formula (53)], the half-life at 28.6 mg/mL in data set [1] was 231 days.

“PEG(20k)-OCO-NH-insulin: insulin reacted with SUNBRIGHT MENP-20T [reference compound]”: the “change in amount of PEGylated insulin over time” value in data set [2] was “no decrease”.
